From publication PMC11062245

Biological target: T1, melanopsin (mOPN4-Flag), on Per2:ELuc:TK:Mel cells (mouse) (UniProt Q9QXZ9)
T1 sequence: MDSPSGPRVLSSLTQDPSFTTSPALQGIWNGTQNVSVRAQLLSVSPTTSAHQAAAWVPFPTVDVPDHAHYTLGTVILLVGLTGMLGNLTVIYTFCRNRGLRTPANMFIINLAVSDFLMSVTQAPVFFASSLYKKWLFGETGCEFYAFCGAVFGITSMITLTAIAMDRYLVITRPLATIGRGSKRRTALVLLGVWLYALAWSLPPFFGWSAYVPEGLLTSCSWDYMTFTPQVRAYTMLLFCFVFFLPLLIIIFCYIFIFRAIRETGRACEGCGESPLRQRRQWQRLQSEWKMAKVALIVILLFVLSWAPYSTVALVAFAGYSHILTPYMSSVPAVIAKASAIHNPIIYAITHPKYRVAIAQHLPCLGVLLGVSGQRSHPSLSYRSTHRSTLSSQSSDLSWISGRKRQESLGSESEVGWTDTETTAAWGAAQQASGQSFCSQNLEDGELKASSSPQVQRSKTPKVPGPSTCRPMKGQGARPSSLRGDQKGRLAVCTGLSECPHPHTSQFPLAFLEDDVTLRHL
Experiment: cell binding fluorescence (microplate), EC50
Details: 6-FAM-Melapt (1.405-90 ug/mL) added to adherent cells in DMEM, 15 min, washed, fluorescence 495/517 nm, n=3, cells cultured at 37 C, 5% CO2, binding pH and …

Sequence	K half [µg/mL]	K half (Results text gives 22.5 ug/mL, not saturated at 90 ug/mL) [µg/mL]
AAAGGGGAATTCGGATCCCCGCACACGTGGAGCCAAGTCGAGTTTAATTCCCTATCGCCTGCAGAAGCTTCCGTTT [6-FAM-Melapt04]	5.62	–
AAAGGGGAATTCGGATCCCGACCCGAAGGAGCGGTGGATAACCCCACCAAGATACGTCCTGCAGAAGCTTCCGTTT [6-FAM-Melapt01]	11.2	–
AAAGGGGAATTCGGATCCTTCACCGATACGGCTCCCTTGGCCAGACAGGAAAAAATAACTGCAGAAGCTTCCGTTT [6-FAM-Melapt08]	–	45
